Measured values: article PMC314469, “Protein Interaction Networks by Proteome Peptide Scanning” (PLoS Biology, 2004)

What was measured:
Assay in all cases: SPOT array
[1] = biological target: T1, Boi1 SH3 (BOI1_YEAST), P38041
T1 chain: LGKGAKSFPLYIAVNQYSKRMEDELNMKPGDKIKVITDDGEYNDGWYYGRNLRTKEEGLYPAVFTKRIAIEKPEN

[2] = biological target: T2, Yfr024 SH3 (LSB3_YEAST), P43603
T2 chain: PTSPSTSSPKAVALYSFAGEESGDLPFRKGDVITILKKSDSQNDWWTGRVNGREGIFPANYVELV

[3] = biological target: T3, Myo5 SH3 (MYO5_YEAST), Q04439
T3 chain: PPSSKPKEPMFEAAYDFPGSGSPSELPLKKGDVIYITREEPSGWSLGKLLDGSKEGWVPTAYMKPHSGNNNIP

[4] = biological target: Sho1 SH3 (SHO1_YEAST), P40073
[5] = biological target: T4, Boi2 SH3 (BOI2_YEAST), P39969
T4 chain: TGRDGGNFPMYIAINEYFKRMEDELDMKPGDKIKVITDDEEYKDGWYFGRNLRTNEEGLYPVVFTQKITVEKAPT

[6] = biological target: T5, Rvs167 SH3 (RV167_YEAST), P39743
T5 chain: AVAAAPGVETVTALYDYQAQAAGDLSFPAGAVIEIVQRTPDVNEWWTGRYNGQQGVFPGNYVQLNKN

[7] = biological target: T6, Yhr016c SH3 (YSC84_YEAST), P32793
T6 chain: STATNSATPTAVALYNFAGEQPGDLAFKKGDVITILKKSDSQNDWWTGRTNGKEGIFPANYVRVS

Chain of Sho1 SH3 (SHO1_YEAST), P40073 (P40073 295-366): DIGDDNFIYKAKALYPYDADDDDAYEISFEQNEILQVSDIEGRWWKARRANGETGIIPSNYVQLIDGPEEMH

LDPGKNTPGLPEET [YAL048C 610-623]
normalised SPOT signal, Boehringer light units (BLU); mean over the file's lines of this peptide [1]: 37.7 | normalised SPOT signal, Boehringer light units (BLU); mean over the file's lines of this peptide [2]: 36.6 | normalised SPOT signal, Boehringer light units (BLU); mean over the file's lines of this peptide [3]: 156 | normalised SPOT signal, Boehringer light units (BLU); mean over the file's lines of this peptide [4]: -0 | normalised SPOT signal, Boehringer light units (BLU); mean over the file's lines of this peptide [5]: 126 | normalised SPOT signal, Boehringer light units (BLU); mean over the file's lines of this peptide [6]: 33.4 | normalised SPOT signal, Boehringer light units (BLU); mean over the file's lines of this peptide [7]: 15.3

LDSMKNLPLNPSKK [YDL027C 309-322]
normalised SPOT signal, Boehringer light units (BLU); mean over the file's lines of this peptide [1]: 178 | normalised SPOT signal, Boehringer light units (BLU); mean over the file's lines of this peptide [2]: 348 | normalised SPOT signal, Boehringer light units (BLU); mean over the file's lines of this peptide [3]: 268 | normalised SPOT signal, Boehringer light units (BLU); mean over the file's lines of this peptide [4]: 8000 | normalised SPOT signal, Boehringer light units (BLU); mean over the file's lines of this peptide [5]: 41.3 | normalised SPOT signal, Boehringer light units (BLU); mean over the file's lines of this peptide [6]: 72.9 | normalised SPOT signal, Boehringer light units (BLU); mean over the file's lines of this peptide [7]: 78.8

LDTHKESPLRPKVR [YKR003W 305-318]
normalised SPOT signal, Boehringer light units (BLU); mean over the file's lines of this peptide [1]: 2820 | normalised SPOT signal, Boehringer light units (BLU); mean over the file's lines of this peptide [2]: 58.4 | normalised SPOT signal, Boehringer light units (BLU); mean over the file's lines of this peptide [3]: 199 | normalised SPOT signal, Boehringer light units (BLU); mean over the file's lines of this peptide [4]: 46.9 | normalised SPOT signal, Boehringer light units (BLU); mean over the file's lines of this peptide [5]: 18.9 | normalised SPOT signal, Boehringer light units (BLU); mean over the file's lines of this peptide [6]: 34.1 | normalised SPOT signal, Boehringer light units (BLU); mean over the file's lines of this peptide [7]: 32.8

LDVRRIYPKGPLLV [YIL113W 50-63]
normalised SPOT signal, Boehringer light units (BLU); mean over the file's lines of this peptide [1]: 4730 | normalised SPOT signal, Boehringer light units (BLU); mean over the file's lines of this peptide [2]: 157 | normalised SPOT signal, Boehringer light units (BLU); mean over the file's lines of this peptide [3]: 232 | normalised SPOT signal, Boehringer light units (BLU); mean over the file's lines of this peptide [4]: 131 | normalised SPOT signal, Boehringer light units (BLU); mean over the file's lines of this peptide [5]: 10.8 | normalised SPOT signal, Boehringer light units (BLU); mean over the file's lines of this peptide [6]: 34.3 | normalised SPOT signal, Boehringer light units (BLU); mean over the file's lines of this peptide [7]: 32.3

LEFPKDYPLSPPKL [YMR022W 58-71]
normalised SPOT signal, Boehringer light units (BLU); mean over the file's lines of this peptide [1]: 110 | normalised SPOT signal, Boehringer light units (BLU); mean over the file's lines of this peptide [2]: 64.1 | normalised SPOT signal, Boehringer light units (BLU); mean over the file's lines of this peptide [3]: 135 | normalised SPOT signal, Boehringer light units (BLU); mean over the file's lines of this peptide [4]: 78.8 | normalised SPOT signal, Boehringer light units (BLU); mean over the file's lines of this peptide [5]: 0 | normalised SPOT signal, Boehringer light units (BLU); mean over the file's lines of this peptide [6]: 114 | normalised SPOT signal, Boehringer light units (BLU); mean over the file's lines of this peptide [7]: 14.8

LFDEKVKPQIPQLR [YML034W 45-58]
normalised SPOT signal, Boehringer light units (BLU); mean over the file's lines of this peptide [1]: 59.1 | normalised SPOT signal, Boehringer light units (BLU); mean over the file's lines of this peptide [2]: 42.8 | normalised SPOT signal, Boehringer light units (BLU); mean over the file's lines of this peptide [3]: 89.2 | normalised SPOT signal, Boehringer light units (BLU); mean over the file's lines of this peptide [4]: 18.8 | normalised SPOT signal, Boehringer light units (BLU); mean over the file's lines of this peptide [5]: 4.9 | normalised SPOT signal, Boehringer light units (BLU); mean over the file's lines of this peptide [6]: 66.6 | normalised SPOT signal, Boehringer light units (BLU); mean over the file's lines of this peptide [7]: 15.7

LFGIRNNPFIPITG [YLR214W 271-284]
normalised SPOT signal, Boehringer light units (BLU); mean over the file's lines of this peptide [1]: 281 | normalised SPOT signal, Boehringer light units (BLU); mean over the file's lines of this peptide [2]: 342 | normalised SPOT signal, Boehringer light units (BLU); mean over the file's lines of this peptide [3]: 170 | normalised SPOT signal, Boehringer light units (BLU); mean over the file's lines of this peptide [4]: 15.8 | normalised SPOT signal, Boehringer light units (BLU); mean over the file's lines of this peptide [5]: 25.5 | normalised SPOT signal, Boehringer light units (BLU); mean over the file's lines of this peptide [6]: 139 | normalised SPOT signal, Boehringer light units (BLU); mean over the file's lines of this peptide [7]: 426
